Measured values from patent US20140005098A1 (INSERM INSTITUT NATIONAL DE LA SANT ET DE LA RECHERCHE M …, published 2014).

Target: T1, IGF-II (UniProt P01344 25-91)
T1 construct: also called biotinylated IGF-II (tracer form)
Experiment: solid-phase displacement of biotinylated IGF-II tracer (Example 5, to which the sentence points); reference: unfused mini-IGFBP-3
Method: A solid-phase assay was used to study the binding affinity of mini-IGFBP-3-Fc for IGF-II. In this assay, two binding proteins (mini-IGFBP-3 and mini-IGFBP-3-Fc) were immobilized to a support. They were incubated with the biotinylated IGF-II tracer, and then increasing concentrations of IGF-II were added.

T1 sequence (P01344 25-91 limits assumed): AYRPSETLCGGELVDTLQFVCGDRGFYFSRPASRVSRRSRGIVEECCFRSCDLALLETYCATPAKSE

B1: mini-IGFBP-3-Fc (mini-IGFBP-3-FcIgG1 fusion protein, immunoadhesin) (Fc fusion, human)
chain: GASSAGLGPVVRCEPCDARALAQCAPPPAVCAELVREPGCGCCLTCALSEGQPCGIYTERCGSGLRCQPSPDEARPLQALLDGRGLCVNASAVSGGGSGGSGGSGGSGGETEYGPCRREMEDTLNHLKFLNVLSPRGVHIPNCDKKGFYKKKQCRPSKGRKRGFCWCVDKYGQPLPGYTTKGKEDVHCYSMQSK
notes: range 1-94;range 180-264; also called mini-IGFBP-3 immunoadhesin; not shown: Fc fragment of human IgG1 from the pYM-Fc-IgG1 vector
For B1, the “fold apparent affinity (IC50) against IGFBP-3 derivatives not fused to IgG1 Fc” value was 7 fold.
